Read-outs that look alike come from different tables or passages of the source.
Columns and labels:
[1] = target: T1, Human T cell receptor on human primary T cells (human, UniProt P01848 1-140; P01850 1-176); assay: cell-based or functional assay
T1 TCR alpha (looked up): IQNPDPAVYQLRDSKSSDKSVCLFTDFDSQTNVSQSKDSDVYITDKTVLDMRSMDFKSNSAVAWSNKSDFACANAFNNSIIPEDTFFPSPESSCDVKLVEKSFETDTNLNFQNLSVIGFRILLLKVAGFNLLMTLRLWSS
T1 TCR beta (looked up): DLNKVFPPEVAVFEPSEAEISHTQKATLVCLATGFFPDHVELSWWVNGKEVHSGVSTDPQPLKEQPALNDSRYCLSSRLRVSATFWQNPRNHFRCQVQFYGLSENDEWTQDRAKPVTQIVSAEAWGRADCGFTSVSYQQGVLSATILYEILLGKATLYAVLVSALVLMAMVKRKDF

[2] = target: Cynomolgus T cell receptor on cynomolgus primary T cells (cynomolgus monkey); assay: cell-based or functional assay; for % Lysis, T cell mediated MOLM-13 cell killing, cynomolgus primary T cells, E:T 10:1: test concentration or dose not given here
[3] = target: T2, Cynomolgus TCR(AEA41865/AEA41866)-zipper protein (cynomolgus monkey); assay: SPR, ProteOn XPR36, 25 C, immobilised TCR-zipper
T2 construct: also called cyTCR-zipper protein; cynoTCR zipper
Source text: HuTCR-zipper or cyTCR-zipper protein was immobilized on a GLC sensor chip (between 100-200 RU) via amine coupling chemistry, using EDC/NHS for activation of the carboxyl groups on the chip surface (running buffer: HBS-EP+, pH7.4). […] Processed sensorgrams were fitted with the Langmuir model (1:1 interaction) using ProteOn Manager 3.1.0 (Version 3.1.0.6) software.
T2 TCR alpha: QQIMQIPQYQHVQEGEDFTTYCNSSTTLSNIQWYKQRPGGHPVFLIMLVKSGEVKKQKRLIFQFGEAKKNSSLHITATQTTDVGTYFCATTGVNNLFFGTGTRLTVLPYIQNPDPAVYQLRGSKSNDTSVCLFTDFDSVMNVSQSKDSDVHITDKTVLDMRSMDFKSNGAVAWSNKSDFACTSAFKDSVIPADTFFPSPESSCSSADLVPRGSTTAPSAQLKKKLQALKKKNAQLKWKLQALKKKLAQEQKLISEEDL
T2 TCR beta: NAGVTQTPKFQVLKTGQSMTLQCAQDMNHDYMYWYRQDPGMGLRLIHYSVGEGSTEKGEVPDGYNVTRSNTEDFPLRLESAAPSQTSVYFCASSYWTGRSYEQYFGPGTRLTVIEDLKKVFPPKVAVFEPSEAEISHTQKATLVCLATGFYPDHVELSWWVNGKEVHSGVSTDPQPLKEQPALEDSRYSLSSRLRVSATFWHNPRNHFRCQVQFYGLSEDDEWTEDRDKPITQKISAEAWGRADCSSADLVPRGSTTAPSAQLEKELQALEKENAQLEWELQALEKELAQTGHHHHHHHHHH

[4] = target: T3, Cynomolgus TCR(AEA41865/AEA41866)-zipper protein (cynomolgus monkey); assay: SPR ProteOn off-rate screen
T3 construct: also called cyTCR-zipper protein; cynoTCR zipper
Source text: (§1) Unique ISVD clones, i.e. clones with a unique sequence, were subsequently selected and screened to determine their off-rate. To this purpose, the ISVD containing periplasmic extracts were screened on huTCR-zipper and cyTCR-zipper protein by SPR on a ProteOn XPR36 instrument. The zipper proteins were immobilized on a GLC sensor chip (between 4300 and 5100RU) via amine coupling chemistry, using EDC/sulfo-NHS for activation of the carboxyl groups on the chip surface (running buffer: HBS-EP+, pH7.4). Periplasmic extracts were injected at 1/10 dilution for 2 min (at a flow rate of 45 μL/min) and dissociation was followed for 900 s. A pulse of 100 s of 3 M MgCl2 at 45 μL/min was used for regeneration. […] Processed sensorgrams were fitted with the Langmuir model (1:1 interaction) using ProteOn Manager 3.1.0 (Version 3.1.0.6) software.
T3 TCR alpha: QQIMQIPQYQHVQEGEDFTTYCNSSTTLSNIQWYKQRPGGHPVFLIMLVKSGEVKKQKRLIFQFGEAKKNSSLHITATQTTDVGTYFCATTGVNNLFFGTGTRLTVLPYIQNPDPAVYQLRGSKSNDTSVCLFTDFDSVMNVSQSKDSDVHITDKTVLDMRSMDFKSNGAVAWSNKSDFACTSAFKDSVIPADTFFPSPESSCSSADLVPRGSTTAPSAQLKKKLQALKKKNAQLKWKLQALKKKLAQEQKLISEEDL
T3 TCR beta: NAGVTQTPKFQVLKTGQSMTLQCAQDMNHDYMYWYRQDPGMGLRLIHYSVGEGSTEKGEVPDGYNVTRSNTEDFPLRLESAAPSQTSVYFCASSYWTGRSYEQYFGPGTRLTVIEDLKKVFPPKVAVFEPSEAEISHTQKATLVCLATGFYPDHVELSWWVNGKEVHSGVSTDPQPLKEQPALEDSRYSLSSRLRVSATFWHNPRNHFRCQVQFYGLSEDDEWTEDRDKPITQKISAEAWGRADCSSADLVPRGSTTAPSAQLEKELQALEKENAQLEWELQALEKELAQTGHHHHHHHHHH

[5] = target: T3, Cynomolgus …; assay: SPR ProteOn off-rate screen
Source text: as §1

[6] = target: T1, Human T cell receptor on human primary …; assay: flow cytometry, human primary T cells
Procedure: The ISVD variants were characterized for binding to CHO-K1 huTCR(2XN9)/huCD3 or to human and cynomolgus primary T cells. […] Next, cells were washed 3 times with FACS buffer and incubated with 1 μg/ml ANTI-FLAG® M2 Ab (Sigma, F1804) and washed again. […] Subsequently, cells were resuspended in FACS buffer supplemented with 5 nM TO-PRO®-3 Iodide to distinguish live from dead cells, which are removed during the gating procedure. Cells were analyzed using a FACS Array flow cytometer (BD Biosciences) and Flowing Software. First a P1 population which represented more than 80% of the total cell population was selected based on FSC-SSC distribution. In this gate, 10000 cells were counted during acquisition. From this population the TO-PRO®-3+cells (dead cells) were excluded and the mean fluorescence intensity (MFI) PE value was calculated.
Throughout, for % Lysis, T cell mediated MOLM-13 cell killing, human primary T cells, E:T 10:1: test concentration or dose not given here.

B1: T017000630 (bispecific antibody)
chain: DVQLVESGGGLVQAGGSLRLSCAASGITSKINDMGWYRQTPGNYREWVASITATGTTNYRDSVKGRFTISRDNAKSTVYLQMNSLKPEDTTVYYCNTFPPISNFWGQGTLVTVSSGGGGSGGGGSGGGGSGGGGSGGGGSGGGGSGGGGSEVQLVESGGGVVQPGGSLRLSCVASWDVHKINFYGWYRQAPGKEREKVAHISIGDQTDYADSAKGRFTISRDESKNTVYLQMNSLRPEDTALYYCRALSKIWPYDYWGQGTLVTVSSA
notes: also called A0110056A10(E1D)-35GS-T0170056G05(L11V, G26W, L34Y, M77T, K83R, V89L, F91Y, F95L, R97K, Y99W)-A
- % Lysis, T cell mediated MOLM-13 cell killing, human primary T cells, E:T 10:1 [1]: 0%
- EC50 (M), T cell mediated MOLM-13 cell killing, cynomolgus primary T cells, E:T 10:1 [2]: 4.5e-10 M
- Kd [3]: 240 nM

B2: T017000640 (bispecific antibody)
chain: DVQLVESGGGLVQAGGSLRLSCAASGITSKINDMGWYRQTPGNYREWVASITATGTTNYRDSVKGRFTISRDNAKSTVYLQMNSLKPEDTTVYYCNTFPPISNFWGQGTLVTVSSGGGGSGGGGSGGGGSGGGGSGGGGSGGGGSGGGGSEVQLVESGGGVVQPGGSLRLSCVASWDVHKINFYTWYRQAPGKEREKVAHISIGDQTDYADSAKGRFTISRDESKNTVYLQMNSLRPEDTALYYCRALSRIWPYDYWGQGTLVTVSSA
notes: also called A0110056A10(E1D)-35GS-T0170056G05(L11V, G26W, L34Y, G35T, M77T, K83R, V89L, F91Y, F95L, Y99W)-A
- % Lysis, T cell mediated MOLM-13 cell killing, human primary T cells, E:T 10:1 [1]: 37%
- EC50 (M), T cell mediated MOLM-13 cell killing, human primary T cells, E:T 10:1 [1]: 5.7e-10 M
- % Lysis, T cell mediated MOLM-13 cell killing, cynomolgus primary T cells, E:T 10:1 [2]: 6%
- Kd [3]: 15000 nM

B3: T017000631 (bispecific antibody)
chain: DVQLVESGGGLVQAGGSLRLSCAASGITSKINDMGWYRQTPGNYREWVASITATGTTNYRDSVKGRFTISRDNAKSTVYLQMNSLKPEDTTVYYCNTFPPISNFWGQGTLVTVSSGGGGSGGGGSGGGGSGGGGSGGGGSGGGGSGGGGSEVQLVESGGGVVQPGGSLRLSCVASYDVHKINFYGWYRQAPGKEREKVAHISIGDQTDYADSAKGRFTISRDESKNTVYLQMNSLRPEDTALYYCRALSKIWPYDYWGQGTLVTVSSA
notes: also called A0110056A10(E1D)-35GS-T0170056G05(L11V, G26Y, L34Y, M77T, K83R, V89L, F91Y, F95L, R97K, Y99W)-A
- % Lysis, T cell mediated MOLM-13 cell killing, human primary T cells, E:T 10:1 [1]: 0%
- % Lysis, T cell mediated MOLM-13 cell killing, cynomolgus primary T cells, E:T 10:1 [2]: 35%
- EC50 (M), T cell mediated MOLM-13 cell killing, cynomolgus primary T cells, E:T 10:1 [2]: 2e-10 M
- Kd [3]: 290 nM

B4: T017000245 (VHH)
VHH: EVQLVESGGGVVQPGGSLRLSCVASGDVHKINFLGWYRQAPGKEREKVAHISIADQTDYADSAKGRFTISRDESKNMVYLQMNSLRPEDTALYFCRAFSRIYPYDYWGQGTLVTVSS
- koff [4]: 0.00936 s⁻¹

B5: T017000294 (VHH)
VHH: EVQLVESGGGVVQPGGSLRLSCVASGDVHKINFLGWYRQAPGKEREKVAHISIGDQTDYADSAKGRFTISRDESKNMVYLQMNSLRPEDTALYFCRAFSRIYPYDWWGQGTLVTVSS
- koff [5]: 0.0151 s⁻¹

B6: T017000249 (VHH)
VHH: EVQLVESGGGVVQPGGSLRLSCVASGDVHKINFLGWYRQAPGKEREKVAHISIGDVTDYADSAKGRFTISRDESKNMVYLQMNSLRPEDTALYFCRAFSRIYPYDYWGQGTLVTVSS
- koff [4]: 0.00939 s⁻¹

B7: T017000302 (VHH)
VHH: EVQLVESGGGVVQPGGSLRLSCVASGDVHKINFLGWYRQAPGKEREKVAHISIGDQTDYADSAKGRFTISRDESKNMVYLQMNSLRPEDTALYFCRAFSRIYPYTYWGQGTLVTVSS
- koff [5]: 0.0148 s⁻¹

B8: T017000690 (VHH, not shown: small tags and cut ends)
VHH: EVQLVESGGGVVQPGGSLRLSCVASWEVHKINFYGWYRQAPGKEREKVAHISIGDQTDYADSAKGRFTISRDESKNTVYLQMNSLRPEDTALYYCRALSRIWPYDYWGQGTLVTVSS
- EC50 [6]: 66 nM

B9: T017000258 (VHH)
VHH: EVQLVESGGGVVQPGGSLRLSCVASGDVHKINFLGWYRQAPGKEREKVAHISIGEQTDYADSAKGRFTISRDESKNMVYLQMNSLRPEDTALYFCRAFSRIYPYDYWGQGTLVTVSS
- koff [4]: 0.0107 s⁻¹

B10: T017000285 (VHH)
VHH: EVQLVESGGGVVQPGGSLRLSCVASGDVHKINFLGWYRQAPGKEREKVAHISIGDQTDYADSAKGRFTISRDESKNMVYLQMNSLRPEDTALYFCRAFSRIYPYLYWGQGTLVTVSS
- koff [5]: 0.0216 s⁻¹

B11: T017000312 (VHH)
VHH: EVQLVESGGGVVQPGGSLRLSCVASGDVHKINFLGWYRQAPGKEREKVAHISIGDQTDYADSAKGRFTISRDESKNMVYLQMNSLRPEDTALYFCRALSRIYPYDYWGQGTLVTVSS
- koff [5]: 0.0087 s⁻¹

B12: T017000291 (VHH)
VHH: EVQLVESGGGVVQPGGSLRLSCVASGDVHKINFLGWYRQAPGKEREKVAHISIGDQTDYADSAKGRFTISRDESKNMVYLQMNSLRPEDTALYFCRAFSRIWPYDYWGQGTLVTVSS
- koff [5]: 0.00672 s⁻¹

B13: T017000287 (VHH)
VHH: EVQLVESGGGVVQPGGSLRLSCVASGDVHKINFLGWYRQAPGKEREKVAHISIGDQTDYADSAKGRFTISRDESKNMVYLQMNSLRPEDTALYFCRAFSRIYPYQYWGQGTLVTVSS
- koff [5]: 0.0121 s⁻¹

B14: T017000283 (VHH)
VHH: EVQLVESGGGVVQPGGSLRLSCVASGDVHKINFLGWYRQAPGKEREKVAHISIGDQTDYADSAKGRFTISRDESKNMVYLQMNSLRPEDTALYFCRAFSSIYPYDYWGQGTLVTVSS
- koff [5]: 0.00559 s⁻¹

B15: T017000682 (VHH, not shown: small tags and cut ends)
VHH: EVQLVESGGGVVQPGGSLRLSCVASGAVHKINFYGWYRQAPGKEREKVAHISIGDQTDYADSAKGRFTISRDESKNTVYLQMNSLRPEDTALYYCRALSRIWPYDYWGQGTLVTVSS
- EC50 [6]: 58 nM

B16: T017000638 (VHH, not shown: small tags and cut ends)
VHH: EVQLVESGGGVVQPGGSLRLSCVASWDVHKINFYTWYRQAPGKEREKVAHISIGDQTDYADSAKGRFTISRDESKNTVYLQMNSLRPEDTALYYCRALSRIWPYDYWGQGTLVTVSS
- EC50 [6]: 66 nM

B17: T017000686 (VHH, not shown: small tags and cut ends)
VHH: EVQLVESGGGVVQPGGSLRLSCVASGSVHKINFYGWYRQAPGKEREKVAHISIGDQTDYADSAKGRFTISRDESKNTVYLQMNSLRPEDTALYYCRALSRIWPYDYWGQGTLVTVSS
- EC50 [6]: 55 nM

B18: T017000278 (VHH)
VHH: EVQLVESGGGVVQPGGSLRLSCVASGDVHKINFLGWYRQAPGKEREKVAHISIGDQTDYADSAKGRFTISRDESKNMVYLQMNSLRPEDTALYFCRAFSRIYPYSYWGQGTLVTVSS
- koff [5]: 0.0162 s⁻¹

B19: T017000290 (VHH)
VHH: EVQLVESGGGVVQPGGSLRLSCVASGDVHKINFLGWYRQAPGKEREKVAHISIGDQTDYADSAKGRFTISRDESKNMVYLQMNSLRPEDTALYFCRAFSKIYPYDYWGQGTLVTVSS
- koff [5]: 0.00171 s⁻¹

B20: T017000254 (VHH)
VHH: EVQLVESGGGVVQPGGSLRLSCVASGDVHKINFLGWYRQAPGKEREKVAHISIGDRTDYADSAKGRFTISRDESKNMVYLQMNSLRPEDTALYFCRAFSRIYPYDYWGQGTLVTVSS
- koff [4]: 0.0118 s⁻¹

B21: T017000301 (VHH)
VHH: EVQLVESGGGVVQPGGSLRLSCVASGDVHKINFLGWYRQAPGKEREKVAHISIGDQTDYADSAKGRFTISRDESKNMVYLQMNSLRPEDTALYFCRAFSRIYPYAYWGQGTLVTVSS
- koff [5]: 0.0178 s⁻¹

B22: T017000281 (VHH)
VHH: EVQLVESGGGVVQPGGSLRLSCVASGDVHKINFLGWYRQAPGKEREKVAHISIGDQTDYADSAKGRFTISRDESKNMVYLQMNSLRPEDTALYFCRAMSRIYPYDYWGQGTLVTVSS
- koff [5]: 0.00555 s⁻¹

— patent US20240092919A1 (Ablynx, published 2024)
